Measured values taken from patent US20210388087A1 (Chugai, published 2021).
Changes are numbered by the printed parent chain. Values belong to the binder of their own block, whether it stands above or below them.

Target: T1, CD3 epsilon homodimer protein (UniProt P07766 23-126)
T1 construct: also called CD3 (CD3 epsilon)
Assay: SPR, CD3 epsilon homodimer on chip, one-arm antibody as analyte;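 also: surface plasmon resonance at 25 °C with CD3 epsilon homodimer amine-coupled to a CM4 sensor chip, antibody injected as analyte, HBS-EP+ as running buffer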

T1 sequence (P07766 23-126): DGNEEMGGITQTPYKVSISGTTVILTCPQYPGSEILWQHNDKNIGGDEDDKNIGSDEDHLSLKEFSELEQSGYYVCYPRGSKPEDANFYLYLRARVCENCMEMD

B1: CE115HA000 N54S (antibody, human IgG1, kappa, L234A L235A, N297A, name in Kabat numbering)
heavy: QVQLVESGGGVVQPGRSLRLSCAASGFTFSNAWMHWVRQAPGKGLEWVAQIKAKSNSYATYYAESVKGRFTISRDDSKNSLYLQMNSLKTEDTAVYYCRYVHYGAYYGVDAWGQGTTVTVSSASTKGPSVFPLAPSSKSTSGGTAALGCLVKDYFPEPVTVSWNSGALTSGVHTFPAVLQSSGLYSLSSVVTVPSSSLGTQTYICNVNHKPSNTKVDKKVEPKSCDKTHTCPPCPAPEAAGGPSVFLFPPKPKDTLMISRTPEVTCVVVDVSHEDPEVKFNWYVDGVEVHNAKTKPREEQYASTYRVVSVLTVLHQDWLNGKEYKCKVSNKALPAPIEKTISKAKGQPREPQVYTLPPSRCELTKNQVSLSCAVKGFYPSDIAVEWESNGQPENNYKTTPPVLDSDGSFFLVSKLTVDKSRWQQGNVFSCSVMHEALHNHYTQKSLSLSPDYKDDDDK
chain: EPKSSDKTHTCPPCPAPELLGGPSVFLFPPKPKDTLMISRTPEVTCVVVDVSHEDPEVKFNWYVDGVEVHNAKTKPREEQYNSTYRVVSVLTVLHQDWLNGKEYKCKVSNKALPAPIEKTISKAKGQPREPQVCTLPPSRDELTKNQVSLWCLVKGFYPSDIAVEWESNGQPENNYKTTPPVLDSDGSFFLYSKLTVDKSRWQQGNVFSCSVMHEALHNRYTQKSLSLSP
light: DIVMTQSPLSLPVTPGEPASISCRSSQSLVHSNRNTYLHWYQQKPGQAPRLLIYKVSNRFSGVPDRFSGSGSGTDFTLKISRVEAEDVGVYYCGQGTQVPYTFGQGTKLEIKRTVAAPSVFIFPPSDEQLKSGTASVVCLLNNFYPREAKVQWKVDNALQSGNSQESVTEQDSKDSTYSLSSTLTLSKADYEKHKVYACEVTHQGLSSPVTKSFNRGEC
notes: one-arm antibody
KD ratio (KD of CE115HA000/KD of altered form): 0.57

B6: CE115HA000 Q50K (antibody, human IgG1, kappa, L234A L235A, N297A, name in Kabat numbering)
heavy: B1 heavy with Q50K, S57N
chain: B1 chain
light: B1 light
notes: one-arm antibody
KD ratio (KD of CE115HA000/KD of altered form): 0.71

B8: CE115HA000 R16E (antibody, human IgG1, kappa, L234A L235A, N297A, name in Kabat numbering)
heavy: B1 heavy with R16E, S57N
chain: B1 chain
light: B1 light
notes: one-arm antibody
KD ratio (KD of CE115HA000/KD of altered form): 0.74

B10: CE115HA000 R19T (antibody, human IgG1, kappa, L234A L235A, N297A, name in Kabat numbering)
heavy: B1 heavy with R19T, S57N
chain: B1 chain
light: B1 light
notes: one-arm antibody
KD ratio (KD of CE115HA000/KD of altered form): 0.81

B14: CE115HA000 Q50A (antibody, human IgG1, kappa, L234A L235A, N297A, name in Kabat numbering)
heavy: B1 heavy with Q50A, S57N
chain: B1 chain
light: B1 light
notes: one-arm antibody
KD ratio (KD of CE115HA000/KD of altered form): 22.6

B15: CE115HA000 Q50I (antibody, human IgG1, kappa, L234A L235A, N297A, name in Kabat numbering)
heavy: B1 heavy with Q50I, S57N
chain: B1 chain
light: B1 light
notes: one-arm antibody
KD ratio (KD of CE115HA000/KD of altered form): 1.21

B17: CE115HA000 Q50D (antibody, human IgG1, kappa, L234A L235A, N297A, name in Kabat numbering)
heavy: B1 heavy with Q50D, S57N
chain: B1 chain
light: B1 light
notes: one-arm antibody
KD ratio (KD of CE115HA000/KD of altered form): 75.4

B18: CE115HA000 Q50L (antibody, human IgG1, kappa, L234A L235A, N297A, name in Kabat numbering)
heavy: B1 heavy with Q50L, S57N
chain: B1 chain
light: B1 light
notes: one-arm antibody
KD ratio (KD of CE115HA000/KD of altered form): 1.41

B20: CE115HA000 N76S (antibody, human IgG1, kappa, L234A L235A, N297A, name in Kabat numbering)
heavy: B1 heavy with S57N, N79S
chain: B1 chain
light: B1 light
notes: one-arm antibody
KD ratio (KD of CE115HA000/KD of altered form): 0.84

B22: CE115HA000 N82aD (antibody, human IgG1, kappa, L234A L235A, N297A, name in Kabat numbering)
heavy: B1 heavy with S57N, N86D
chain: B1 chain
light: B1 light
notes: one-arm antibody
KD ratio (KD of CE115HA000/KD of altered form): 0.56

B23: CE115HA000 R16Q (antibody, human IgG1, kappa, L234A L235A, N297A, name in Kabat numbering)
heavy: B1 heavy with R16Q, S57N
chain: B1 chain
light: B1 light
notes: one-arm antibody
KD ratio (KD of CE115HA000/KD of altered form): 0.87

B25: CE115HA000 Q105E (antibody, human IgG1, kappa, L234A L235A, N297A, name in Kabat numbering)
heavy: B1 heavy with S57N, Q114E
chain: B1 chain
light: B1 light
notes: one-arm antibody
KD ratio (KD of CE115HA000/KD of altered form): 0.89

B27: CE115HA000 S30D (antibody, human IgG1, kappa, L234A L235A, N297A, name in Kabat numbering)
heavy: B1 heavy with S30D, S57N
chain: B1 chain
light: B1 light
notes: one-arm antibody
KD ratio (KD of CE115HA000/KD of altered form): 0.79

B29: CE115HA000 Q50S (antibody, human IgG1, kappa, L234A L235A, N297A, name in Kabat numbering)
heavy: B1 heavy with Q50S, S57N
chain: B1 chain
light: B1 light
notes: one-arm antibody
KD ratio (KD of CE115HA000/KD of altered form): 47.4

B30: CE115HA000 Q50E (antibody, human IgG1, kappa, L234A L235A, N297A, name in Kabat numbering)
heavy: B1 heavy with Q50E, S57N
chain: B1 chain
light: B1 light
notes: one-arm antibody
KD ratio (KD of CE115HA000/KD of altered form): 16700

B31: CE115HA000 Q50Y (antibody, human IgG1, kappa, L234A L235A, N297A, name in Kabat numbering)
heavy: B1 heavy with Q50Y, S57N
chain: B1 chain
light: B1 light
notes: one-arm antibody
KD ratio (KD of CE115HA000/KD of altered form): 49.1

B32: CE115HA000 N54Y (antibody, human IgG1, kappa, L234A L235A, N297A, name in Kabat numbering)
heavy: B1 heavy with S57Y
chain: B1 chain
light: B1 light
notes: one-arm antibody
KD ratio (KD of CE115HA000/KD of altered form): 1.03

The remaining lines, values ahead:

KD ratio (KD of CE115HA000/KD of altered form): 0.93
B2: CE115HA000 S30G (antibody, human IgG1, kappa, L234A L235A, N297A, name in Kabat numbering)
heavy: B1 heavy with S30G, S57N
chain: B1 chain
light: B1 light
notes: one-arm antibody

KD ratio (KD of CE115HA000/KD of altered form): 0.7
B3: CE115HA000 S74P (antibody, human IgG1, kappa, L234A L235A, N297A, name in Kabat numbering)
heavy: B1 heavy with S57N, S77P
chain: B1 chain
light: B1 light
notes: one-arm antibody

KD ratio (KD of CE115HA000/KD of altered form): 0.94
B4: CE115HA000 S52cL (antibody, human IgG1, kappa, L234A L235A, N297A, name in Kabat numbering)
heavy: B1 heavy with S55L, S57N
chain: B1 chain
light: B1 light
notes: one-arm antibody

KD ratio (KD of CE115HA000/KD of altered form): 0.86
B5: CE115HA000 S52cK (antibody, human IgG1, kappa, L234A L235A, N297A, name in Kabat numbering)
heavy: B1 heavy with S55K, S57N
chain: B1 chain
light: B1 light
notes: one-arm antibody

KD ratio (KD of CE115HA000/KD of altered form): 0.55
B7: CE115HA000 S52cD (antibody, human IgG1, kappa, L234A L235A, N297A, name in Kabat numbering)
heavy: B1 heavy with S55D, S57N
chain: B1 chain
light: B1 light
notes: one-arm antibody

KD ratio (KD of CE115HA000/KD of altered form): 0.87
B9: CE115HA000 S52cY (antibody, human IgG1, kappa, L234A L235A, N297A, name in Kabat numbering)
heavy: B1 heavy with S55Y, S57N
chain: B1 chain
light: B1 light
notes: one-arm antibody

KD ratio (KD of CE115HA000/KD of altered form): 0.82
B11: CE115HA000 S52cV (antibody, human IgG1, kappa, L234A L235A, N297A, name in Kabat numbering)
heavy: B1 heavy with S55V, S57N
chain: B1 chain
light: B1 light
notes: one-arm antibody

KD ratio (KD of CE115HA000/KD of altered form): 0.82
B12: CE115HA000 S62E (antibody, human IgG1, kappa, L234A L235A, N297A, name in Kabat numbering)
heavy: B1 heavy with S57N, S65E
chain: B1 chain
light: B1 light
notes: one-arm antibody

KD ratio (KD of CE115HA000/KD of altered form): 0.99
B13: CE115HA000 S62K (antibody, human IgG1, kappa, L234A L235A, N297A, name in Kabat numbering)
heavy: B1 heavy with S57N, S65K
chain: B1 chain
light: B1 light
notes: one-arm antibody

KD ratio (KD of CE115HA000/KD of altered form): 0.97
B16: CE115HA000 S52cQ (antibody, human IgG1, kappa, L234A L235A, N297A, name in Kabat numbering)
heavy: B1 heavy with S55Q, S57N
chain: B1 chain
light: B1 light
notes: one-arm antibody

KD ratio (KD of CE115HA000/KD of altered form): 0.81
B19: CE115HA000 S52cG (antibody, human IgG1, kappa, L234A L235A, N297A, name in Kabat numbering)
heavy: B1 heavy with S55G, S57N
chain: B1 chain
light: B1 light
notes: one-arm antibody

KD ratio (KD of CE115HA000/KD of altered form): 0.77
B21: CE115HA000 S74A (antibody, human IgG1, kappa, L234A L235A, N297A, name in Kabat numbering)
heavy: B1 heavy with S57N, S77A
chain: B1 chain
light: B1 light
notes: one-arm antibody

KD ratio (KD of CE115HA000/KD of altered form): 0.87
B24: CE115HA000 S62D (antibody, human IgG1, kappa, L234A L235A, N297A, name in Kabat numbering)
heavy: B1 heavy with S57N, S65D
chain: B1 chain
light: B1 light
notes: one-arm antibody

KD ratio (KD of CE115HA000/KD of altered form): 0.77
B26: CE115HA000 S62P (antibody, human IgG1, kappa, L234A L235A, N297A, name in Kabat numbering)
heavy: B1 heavy with S57N, S65P
chain: B1 chain
light: B1 light
notes: one-arm antibody

KD ratio (KD of CE115HA000/KD of altered form): 0.87
B28: CE115HA000 S52cA (antibody, human IgG1, kappa, L234A L235A, N297A, name in Kabat numbering)
heavy: B1 heavy with S55A, S57N
chain: B1 chain
light: B1 light
notes: one-arm antibody

KD ratio (KD of CE115HA000/KD of altered form): 0.93
B33: CE115HA000 S52cF (antibody, human IgG1, kappa, L234A L235A, N297A, name in Kabat numbering)
heavy: B1 heavy with S55F, S57N
chain: B1 chain
light: B1 light
notes: one-arm antibody
